Source: patent publication EP1073741B1
Several values for one entry are separate records, joined by “and”; a condition that tells them apart may be missing. Equal entries are not always repeated.

Key:
[1] = molecular target: feline CD80, surface expressed on feCD80/pSI transfected COS-7 cells (feline); test: competitive cell-cell adhesion assay at 5x10^5 cells; huCTLA-4Ig pre-incubated with CD80 COS-7 cells, then added to CD28 COS-7 monolayer
[2] = molecular target: feline CD28, surface expressed on CD28-pSI transfected COS-7 cells (feline); test: cell-cell adhesion assay; calcein-labelled CD80 COS-7 cells on CD28 COS-7 monolayer; microplate fluorimeter

fold residual fluorescence against wells inhibited with soluble CD80 (close to the mock transfected control) [1] | fold fluorescence against wells with mock transfected adherent cells, at 1x10^6 cells [2] [fold] | Substance
2 fold and 3 fold |  | huCTLA-4Ig fusion protein (from UniProt P16410 38-161) (Fc fusion)
 | 5 | feline CD80, surface expressed on feCD80/pSI transfected COS-7 cells (ligand)
